According to paper PMC10808224, “Lsr2 acts as a cyclic di-GMP receptor that promotes keto-mycolic acid synthesis and biofilm formation in mycobacteria” (Nature Communications, 2024):

Key:
[1] = target: Lsr2Msm (Mycobacterium smegmatis mc2 155) (UniProt A0R576); experiment: EMSA; settings: EMSA: 50 mM Tris-HCl pH 7.5, 50 mM NaCl, 10% glycerol, 30 uL, room temperature 15 min; 8% native PAGE in 0.5x TBE
[2] = target: Lsr2Mtb (Lsr2BCG in main text) (Mycobacterium tuberculosis) (UniProt P9WIP7); experiment: EMSA

Row | Sequence | binding [1] | binding [2]
1 | TAGTCGGGGTAGCGGTAGTGAGTCCCGATGATGTTTGCCGCGATGCTCATGTGTTCTCTGCTACTCCCGTGCTTCCAGCTTCAACTGCCCGGCTGCGGAAGCCTATCAGCGTGGGGGTTCAGCGAATGTCAGCGAAGGTCAGCGAAGGTCATGGCGGCGGGAGGCCACCGCGGCCAGCGCGCCGCCGAGCGCCCCTAGGGCCAGCGCGGACGGCACACCGATGCGGGCCGCTTTGCGGGCCGTGCGGAAGTCGCGGATCTCCCAGCCGCGTTCCCGCGCGACGTCGCGCAGCGCGGCGTC (double strand) [hadDMsmp] | binds | 
2 | CCGCTCGGATCGGGGTTCCGTCGGCCCTGGCGCTGGGTGCGGCCGGCGGCGCGTTGGCGGCTCTAGCCTCTAGACGCCAATCACGCTGATAAGCTGCGCCGTTAGCCTGGCGACGATGCGGCCCGCGCAGCGGGGCGAGGAGGAGCCGGGCAATAGGGCCCAGCCTGGCGACGATGCGACCCGCGCAGCGGGGCGAGGAGGAGCCGGGCAATAGGGCTTAGCAACTATTCGAGCGGAGGGCGGCAGCGGCATGACAGTTCCCGAAGAAGCCCAGACACTGATCGGCAAGCATTATCGGGC (double strand) [hadDMtbp / hadDBCGp] |  | binds
